Results reported in article PMC4072508, “Genome-Wide Prediction and Validation of Peptides That Bind Human Prosurvival Bcl-2 Proteins” (PLoS Computational Biology, 2014).

T1: Bfl-1, Q16548
T1 chain: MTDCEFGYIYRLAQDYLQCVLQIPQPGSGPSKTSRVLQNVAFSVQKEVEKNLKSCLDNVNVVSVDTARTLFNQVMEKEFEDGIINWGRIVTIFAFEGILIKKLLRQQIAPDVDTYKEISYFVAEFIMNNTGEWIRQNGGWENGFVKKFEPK

T2: Bcl-w, Q92843
T2 chain: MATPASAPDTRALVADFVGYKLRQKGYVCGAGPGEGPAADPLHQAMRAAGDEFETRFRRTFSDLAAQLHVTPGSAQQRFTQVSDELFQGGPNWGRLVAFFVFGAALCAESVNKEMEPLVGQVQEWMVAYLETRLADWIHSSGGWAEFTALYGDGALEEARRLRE

T3: Mcl-1, Q07820
T3 chain: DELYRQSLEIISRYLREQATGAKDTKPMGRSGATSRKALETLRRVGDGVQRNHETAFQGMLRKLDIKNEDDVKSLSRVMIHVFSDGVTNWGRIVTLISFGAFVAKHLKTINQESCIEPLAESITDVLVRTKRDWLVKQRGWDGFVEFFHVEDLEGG

T4: Bcl-2, P10415
T4 chain: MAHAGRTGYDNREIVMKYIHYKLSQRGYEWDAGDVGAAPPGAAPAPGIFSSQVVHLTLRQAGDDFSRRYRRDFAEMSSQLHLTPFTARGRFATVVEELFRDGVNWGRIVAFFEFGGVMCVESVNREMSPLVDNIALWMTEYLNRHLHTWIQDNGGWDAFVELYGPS


Columns and labels:
Bfl-1, Q16548 [1] = molecular target: T1, Bfl-1, Q16548; test: peptide SPOT array, c-Myc-tagged receptor at 1 uM or 100 nM, anti-c-Myc-Cy3
Bcl-w, Q92843 [2] = molecular target: T2, Bcl-w, Q92843; test: as above
Mcl-1, Q07820 = molecular target: T3, Mcl-1, Q07820; test: as above
Bcl-xL, Q07817 = test: as above
Bcl-2, P10415 [3] = test: as above
Bfl-1, Q16548 [4] = molecular target: T1, Bfl-1, Q16548; test: fluorescence polarisation, direct titration of receptor into 10 nM labelled peptide
Bcl-w, Q92843 [5] = molecular target: T2, Bcl-w, Q92843; test: as above
Bcl-2, P10415 [6] = molecular target: T4, Bcl-2, P10415; test: as above

Sequence of Bcl-xL, Q07817 (Q07817 1-209): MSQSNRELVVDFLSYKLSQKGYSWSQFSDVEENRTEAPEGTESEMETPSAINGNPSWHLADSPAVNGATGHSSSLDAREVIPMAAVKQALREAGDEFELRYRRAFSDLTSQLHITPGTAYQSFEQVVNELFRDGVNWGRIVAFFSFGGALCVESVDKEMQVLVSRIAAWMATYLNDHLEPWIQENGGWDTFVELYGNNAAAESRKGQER

SPOT signal as a fraction of Bim BH3's signal on the same receptor and array (Bfl-1, Q16548 [1]) | SPOT signal as a fraction of Bim BH3's signal on the same receptor and array (Bcl-w, Q92843 [2]) | SPOT signal as a fraction of Bim BH3's signal on the same receptor and array (Mcl-1, Q07820) | SPOT signal as a fraction of Bim BH3's signal on the same receptor and array (Bcl-xL, Q07817) | SPOT signal as a fraction of Bim BH3's signal on the same receptor and array (Bcl-2, P10415 [3]) | Kd (Bfl-1, Q16548 [4]) | Kd (Bcl-w, Q92843 [5]) | Kd (Bcl-2, P10415 [6]) | Binder
0.23 | 0.26 | 0.12 | 0.26 | 0.03 | – | – | – | KEFLALASSSLLKIGQETDKTTTRNR [NCKAP1]
0.15 | 0.14 | 0.1 | 0.28 | 0.05 | – | – | – | LQLHRVLPPDLKSLGDQYVKDEFRRH [ACN9]
0.38 | 0.2 | 0.14 | 0.39 | 0.09 | – | – | – | DISLSNSGFKLVNFGCDYHQYRDKFS [PION]
0.02 | 0.02 | 0.02 | 0.03 | 0.01 | – | – | – | FMEKLDNGALLCQLAETMQEKFKESM [GAS2]
0.13 | 0.07 | 0.06 | 0.12 | 0.04 | – | – | – | GDRAGGRSWCLRRVGMSAGWLLLEDG [RNF8]
0.02 | 0.02 | 0.02 | 0.02 | 0.01 | – | – | – | ADLYEEAAENLHQLSDKLPAPGRAMV [MTBP]
0.19 | 0.21 | 0.11 | 0.28 | 0.05 | – | – | – | DNHKKKTVKMLEYLGKDVLHGVFNYL [CASP5]
0.04 | 0.03 | 0.04 | 0.06 | 0.02 | – | – | – | TIHFNQRGTRLASSGDDLRVIVWDWV [DCAF8L1]
0.05 | 0.05 | 0.03 | 0.57 | 0.02 | – | – | – | KYDPSKYCHNLKKIGEDFSNTIPISS [NOL8]
0.02 | 0.03 | 0.07 | 0.04 | 0.01 | – | – | – | DLTDKLVSFYLETYGAELTANVLRDM [PYCARD]
0.02 | 0.02 | 0.03 | 0.02 | 0.01 | – | – | – | EEIIHKLAMQDRHIGDNIDHRMVRED [PXT1]
0.07 | 0.03 | 0.04 | 0.07 | 0.02 | – | – | – | MVLDPSLAEHLSHFGIDMLKMQKTDK [USP5]
0.25 | – | – | – | – | 43 nM | 64 nM | 264 nM | SWFIQSLCAMLKQYADKLEFMHILTR [CASP3]
0.02 | 0.02 | 0.02 | 0.03 | 0.01 | – | – | – | AAVGNHVAKLLQSIGQAPESISEKEL [NAE1]
0.02 | 0.03 | 0.04 | 0.04 | 0.01 | – | – | – | VAGYRESAAFLLRSADELENLILQQN [NOL4]
0.16 | 0.11 | 0.08 | 0.41 | 0.06 | – | – | – | LGRTGQVCLFLKRGADQHALDQEQRD [ACAP3]
0.05 | 0.08 | 0.06 | 0.15 | 0.02 | – | – | – | SATHDEAVQVLKKTGKEVVLEVKYMK [SNTA1]
0.02 | 0.02 | 0.02 | 0.03 | 0.01 | – | – | – | CSTNNPSQAKLRRELDESLQVAERLT [CLU]
0.45 | 0.59 | 0.27 | 0.52 | 0.15 | – | – | – | IKKSVTKGEMLKIVGKRFREHFPEIL [MAGEB2]
0.25 | 0.3 | 0.3 | 0.1 | 0.07 | – | – | – | PEDLQDVGWFLHKLSQQILKKEKEKK [TLR5]
0.02 | 0.02 | 0.02 | 0.03 | 0.01 | – | – | – | SVGGRGISSKLDSLADELKFVPIIGI [SACS]
